# Experimental data from patent US9018171B2, “Uses of an immunomodulatory protein (GMI) from Ganoderma microsporum” (Mycomagic Biotechnology Co., Ltd., priority 2010, dated 2015).
# Tests used:
# [1] = test system: A549 cells; test: Actin staining; format: cell-based, human
# Procedure: A549 cells (1×10^4 cells/well) were seeded onto 24 wells with coverslip. A549 cells were pretreated with various concentrations of GMI (2, 4, 8 μg/ml) for 1 h before being stimulated with 10 ng/mL EGF for 23 h. A549 cells treated with or without EGF were stained with Texas Red®-X phalloidin and Alexa Fluor 488 DNase I conjugate to detect F-actin (red) and G-actin (green).
# Cells were washed twice with PBS and fixed in a 3.7% paraformaldehyde-PBS solution for 10 min at room temperature. After two additional washes with PBS, cells were permeabilized with a solution of 0.1% Triton X-100 in PBS for 3 to 5 min and washed again with PBS. Texas Red-X phalloidin (2 units/mL) and Alexa Fluor 488 DNase I conjugate (9 μg/mL) were used to localize filamentous actin (F-actin) and G-actin. Fluorescent dyes were diluted with blocking solution (1% bovine serum albumin and 0.025% saponin in PBS) and added to coverslips for 60 min at room temperature. After three washes with PBS, coverslips were mounted on a microscope slide with Prolong Gold antifade reagent with DAPI (Life Technologies). F-actin cytoskeleton imaging was performed with a confocal laser scanning microscope (ZEISS LSM510 BETA) at ×400 magnification.
# [2] = test system: SR; test: NCI60 in vitro screening, Leukemia; format: cell-based
# [3] = test system: HCT-116; test: NCI60 in vitro screening, Colon Cancer; format: cell-based
# [4] = test system: KM12; test: NCI60 in vitro screening, Colon Cancer; format: cell-based
# [5] = test system: SF-539; test: NCI60 in vitro screening, CNS Cancer; format: cell-based
# [6] = test system: IGROV1; test: NCI60 in vitro screening, Ovarian Cancer; format: cell-based
# [7] = test system: OVCAR-3; test: NCI60 in vitro screening, Ovarian Cancer; format: cell-based
# [8] = test system: SK-OV-3; test: NCI60 in vitro screening, Ovarian Cancer; format: cell-based
# [9] = test system: 786-0; test: NCI60 in vitro screening, Renal Cancer; format: cell-based
# [10] = test system: A498; test: NCI60 in vitro screening, Renal Cancer; format: cell-based
# [11] = test system: ACHN; test: NCI60 in vitro screening, Renal Cancer; format: cell-based
# [12] = test system: RXF 393; test: NCI60 in vitro screening, Renal Cancer; format: cell-based
# [13] = test system: TK-10; test: NCI60 in vitro screening, Renal Cancer; format: cell-based
# [14] = test system: DU-145; test: NCI60 in vitro screening, Prostate Cancer; format: cell-based
# [15] = test system: HS 578T; test: NCI60 in vitro screening, Breast Cancer; format: cell-based
# [16] = test system: SK-MEL-2; test: NCI60 in vitro screening, Melanoma; format: cell-based; conditions: SK-MEL-2, one dose
molecule,measurement,setting,value
"GMI: immunomodulatory protein from Ganoderma microsporum, amino acid sequence SEQ ID NO: 3, manufactured by Mycomagic Biotechnology Co., Ltd. (protein, listed as Ganoderma microsporum) MSDTALIFTLAWNVKQLAFDYTPNWGRGRPSSFIDTVTFPTVLTDKAYTYRVVVSGKDLGVRPSYAVESDGSQKINFLEYNSGYGIADTNTIQVYVIDPDTGNNFIVAQWN",elongation and polymerization of F-actin and G-actin,[1]; A549 cells treated with EGF or GMI alone,abrogated
same,filopodia formation,"[1]; A549 cells, GMI 2, 4, 8 μg/ml, EGF 10 ng/mL",fewer filopodia fibers
same,focal contact size,"[1]; A549 cells, GMI alone and combined with EGF",reduced by GMI in a dose-dependent manner
same,TGI,[2],>1.25E2
same,Percent Growth,[2]; Log10 Concentration 0.1,96%
same,Percent Growth,[2]; Log10 Concentration 1.1,17%
same,Percent Growth,[2]; Log10 Concentration 2.1,1%
same,Percent Growth,[2]; Log10 Concentration −0.9,96%
same,Percent Growth,[2]; Log10 Concentration −1.9,98%
same,GI50,[2]; in µg/mL,4.79E0
same,Growth Percent,[2]; one dose,32.47%
same,TGI,[3]; HCT-116,>1.25E2
same,Percent Growth,"[3]; HCT-116, Log10 Concentration 0.1",101%
same,Percent Growth,"[3]; HCT-116, Log10 Concentration 1.1",103%
same,Percent Growth,"[3]; HCT-116, Log10 Concentration 2.1",104%
same,Percent Growth,"[3]; HCT-116, Log10 Concentration −0.9",105%
same,Percent Growth,"[3]; HCT-116, Log10 Concentration −1.9",98%
same,Growth Percent,"[3]; HCT-116, one dose",101.77%
same,TGI,[4]; KM12,>1.25E2
same,Percent Growth,"[4]; KM12, Log10 Concentration 0.1",104%
same,Percent Growth,"[4]; KM12, Log10 Concentration 1.1",89%
same,Percent Growth,"[4]; KM12, Log10 Concentration 2.1",43%
same,Percent Growth,"[4]; KM12, Log10 Concentration −0.9",96%
same,Percent Growth,"[4]; KM12, Log10 Concentration −1.9",100%
same,Growth Percent,"[4]; KM12, one dose",62.96%
same,GI50,"[4]; KM12, in µg/mL",8.92E1
same,TGI,[5]; SF-539,6.02E1
same,Percent Growth,"[5]; SF-539, Log10 Concentration 0.1",102%
same,Percent Growth,"[5]; SF-539, Log10 Concentration 1.1",80%
same,Percent Growth,"[5]; SF-539, Log10 Concentration 2.1",−37%
same,Percent Growth,"[5]; SF-539, Log10 Concentration −0.9",111%
same,Percent Growth,"[5]; SF-539, Log10 Concentration −1.9",108%
same,Growth Percent,"[5]; SF-539, one dose",48.19%
same,GI50,"[5]; SF-539, in µg/mL",2.26E1
same,TGI,[6]; IGROV1,>1.25E2
same,Percent Growth,"[6]; IGROV1, Log10 Concentration 0.1",117%
same,Percent Growth,"[6]; IGROV1, Log10 Concentration 1.1",62%
same,Percent Growth,"[6]; IGROV1, Log10 Concentration 2.1",30%
same,Percent Growth,"[6]; IGROV1, Log10 Concentration −0.9",98%
same,Percent Growth,"[6]; IGROV1, Log10 Concentration −1.9",103%
same,Growth Percent,"[6]; IGROV1, one dose",30.07%
same,GI50,"[6]; IGROV1, in µg/mL",2.94E1
same,TGI,[7]; OVCAR-3,>1.25E2
same,Percent Growth,"[7]; OVCAR-3, Log10 Concentration 0.1",108%
same,Percent Growth,"[7]; OVCAR-3, Log10 Concentration 1.1",85%
same,Percent Growth,"[7]; OVCAR-3, Log10 Concentration 2.1",26%
same,Percent Growth,"[7]; OVCAR-3, Log10 Concentration −0.9",102%
same,Percent Growth,"[7]; OVCAR-3, Log10 Concentration −1.9",99%
same,Growth Percent,"[7]; OVCAR-3, one dose",94.57%
same,GI50,"[7]; OVCAR-3, in µg/mL",4.90E1
same,TGI,[8]; SK-OV-3,>1.25E2
same,Percent Growth,"[8]; SK-OV-3, Log10 Concentration 0.1",107%
same,Percent Growth,"[8]; SK-OV-3, Log10 Concentration 1.1",94%
same,Percent Growth,"[8]; SK-OV-3, Log10 Concentration 2.1",55%
same,Percent Growth,"[8]; SK-OV-3, Log10 Concentration −0.9",103%
same,Percent Growth,"[8]; SK-OV-3, Log10 Concentration −1.9",103%
same,Growth Percent,"[8]; SK-OV-3, one dose",89.18%
same,TGI,[9]; 786-0,>1.25E2
same,Percent Growth,"[9]; 786-0, Log10 Concentration 0.1",111%
same,Percent Growth,"[9]; 786-0, Log10 Concentration 1.1",73%
same,Percent Growth,"[9]; 786-0, Log10 Concentration 2.1",4%
same,Percent Growth,"[9]; 786-0, Log10 Concentration −0.9",99%
same,Percent Growth,"[9]; 786-0, Log10 Concentration −1.9",100%
same,Growth Percent,"[9]; 786-0, one dose",74.75%
same,GI50,"[9]; 786-0, in µg/mL",2.70E1
same,TGI,[10]; A498,7.07E1
same,Percent Growth,"[10]; A498, Log10 Concentration 0.1",114%
same,Percent Growth,"[10]; A498, Log10 Concentration 1.1",108%
same,Percent Growth,"[10]; A498, Log10 Concentration 2.1",−35%
same,Percent Growth,"[10]; A498, Log10 Concentration −0.9",102%
same,Percent Growth,"[10]; A498, Log10 Concentration −1.9",107%
same,Growth Percent,"[10]; A498, one dose",98.16%
same,GI50,"[10]; A498, in µg/mL",3.17E1
same,TGI,[11],3.62E1
same,Percent Growth,[11]; Log10 Concentration 0.1,103%
same,Percent Growth,[11]; Log10 Concentration 1.1,36%
same,Percent Growth,[11]; Log10 Concentration 2.1,−42%
same,Percent Growth,[11]; Log10 Concentration −0.9,99%
same,Percent Growth,[11]; Log10 Concentration −1.9,109%
same,GI50,[11]; in µg/mL,7.65E0
same,Growth Percent,[11]; one dose,−33.94%
same,TGI,[12]; RXF 393,4.72E1
same,Percent Growth,"[12]; RXF 393, Log10 Concentration 0.1",101%
same,Percent Growth,"[12]; RXF 393, Log10 Concentration 1.1",76%
same,Percent Growth,"[12]; RXF 393, Log10 Concentration 2.1",−56%
same,Percent Growth,"[12]; RXF 393, Log10 Concentration −0.9",101%
same,Percent Growth,"[12]; RXF 393, Log10 Concentration −1.9",101%
same,Growth Percent,"[12]; RXF 393, one dose",38.93%
same,GI50,"[12]; RXF 393, in µg/mL",1.97E1
same,LC50,"[12]; RXF 393, in µg/mL",1.13E2
same,TGI,[13]; TK-10,4.91E0
same,Percent Growth,"[13]; TK-10, Log10 Concentration 0.1",106%
same,Percent Growth,"[13]; TK-10, Log10 Concentration 1.1",−72%
same,Percent Growth,"[13]; TK-10, Log10 Concentration 2.1",−100%
same,Percent Growth,"[13]; TK-10, Log10 Concentration −0.9",98%
same,Percent Growth,"[13]; TK-10, Log10 Concentration −1.9",96%
same,Growth Percent,"[13]; TK-10, one dose",−92.37%
same,GI50,"[13]; TK-10, in µg/mL",2.57E0
same,LC50,"[13]; TK-10, in µg/mL",9.38E0
same,TGI,[14]; DU-145,>1.25E2
same,Percent Growth,"[14]; DU-145, Log10 Concentration 0.1",109%
same,Percent Growth,"[14]; DU-145, Log10 Concentration 1.1",71%
same,Percent Growth,"[14]; DU-145, Log10 Concentration 2.1",9%
same,Percent Growth,"[14]; DU-145, Log10 Concentration −0.9",99%
same,Percent Growth,"[14]; DU-145, Log10 Concentration −1.9",101%
same,Growth Percent,"[14]; DU-145, one dose",39.22%
same,GI50,"[14]; DU-145, in µg/mL",2.76E1
same,TGI,[15],>1.25E2
same,Percent Growth,[15]; Log10 Concentration 0.1,108%
same,Percent Growth,[15]; Log10 Concentration 1.1,96%
same,Percent Growth,[15]; Log10 Concentration 2.1,64%
same,Percent Growth,[15]; Log10 Concentration −0.9,106%
same,Percent Growth,[15]; Log10 Concentration −1.9,104%
same,Growth Percent,[16],105.92%
